# Measured values reported in patent publication US20180009871A1 (INTARCIA THERAPEUTICS, published 2018).
# Where no end group is shown, it is not given here. [ ]: non-standard residue; d: D form. Aib = CC(C)(N)C(=O)O
# Experiments:
# [1] = molecular target: human glucagon receptor (GCGR) (human, UniProt P47871 26-477); experiment: cell-based or functional assay
# [2] = molecular target: human GLP-1 receptor (GLP-1R) (human, UniProt P43220 24-463); experiment: cell-based or functional assay
# human GLP-1 receptor (GLP-1R), sequence (P43220 24-463): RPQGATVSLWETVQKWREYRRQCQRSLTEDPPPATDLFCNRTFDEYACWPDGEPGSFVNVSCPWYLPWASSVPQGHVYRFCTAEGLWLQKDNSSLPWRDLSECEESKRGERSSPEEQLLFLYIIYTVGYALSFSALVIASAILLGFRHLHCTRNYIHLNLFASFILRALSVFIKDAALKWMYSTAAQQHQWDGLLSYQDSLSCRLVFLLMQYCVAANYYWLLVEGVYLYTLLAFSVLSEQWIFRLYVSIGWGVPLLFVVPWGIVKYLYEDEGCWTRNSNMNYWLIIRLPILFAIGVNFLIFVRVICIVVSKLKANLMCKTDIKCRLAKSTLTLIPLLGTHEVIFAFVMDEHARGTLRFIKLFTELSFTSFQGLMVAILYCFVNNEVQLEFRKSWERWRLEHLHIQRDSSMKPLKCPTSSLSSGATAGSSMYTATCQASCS
Binder,hGCGR pEC50 (cAMP) mean (n = 3): 11 point curve starting at 1 nM [1],hGLP1 pEC50 (cAMP) mean (n = 3): 11 point curve starting at 1 nM [2]
YGHGTFTSDHSKYLD[Aib]KRAQEFVKWLEDE-OH (N-terminus assumed; SMILES CC(C)C[C@H](NC(=O)[C@H](Cc1c[nH]c2ccccc12)NC(=O)[C@H](CCCCN)NC(=O)[C@@H](NC(=O)[C@H](Cc1ccccc1)NC(=O)[C@H](CCC(=O)O)NC(=O)[C@H](CCC(N)=O)NC(=O)[C@H](C)NC(=O)[C@H](CCCNC(=N)N)NC(=O)[C@H](CCCCN)NC(=O)C(C)(C)NC(=O)[C@H](CC(=O)O)NC(=O)[C@H](CC(C)C)NC(=O)[C@H](Cc1ccc(O)cc1)NC(=O)[C@H](CCCCN)NC(=O)[C@H](CO)NC(=O)[C@H](Cc1c[nH]cn1)NC(=O)[C@H](CC(=O)O)NC(=O)[C@H](CO)NC(=O)[C@@H](NC(=O)[C@H](Cc1ccccc1)NC(=O)[C@@H](NC(=O)CNC(=O)[C@H](Cc1c[nH]cn1)NC(=O)CNC(=O)[C@@H](N)Cc1ccc(O)cc1)[C@@H](C)O)[C@@H](C)O)C(C)C)C(=O)N[C@@H](CCC(=O)O)C(=O)N[C@@H](CC(=O)O)C(=O)N[C@@H](CCC(=O)O)C(=O)O) [Compound A101],11.3 pEC50,< 9 pEC50
YSHGTFTSDYSKYLD[Aib]ARAQEFV[Aib]WLEDEPSSGAPPPS-OH (N-terminus assumed; SMILES CC(C)C[C@H](NC(=O)[C@H](Cc1ccc(O)cc1)NC(=O)[C@H](CCCCN)NC(=O)[C@H](CO)NC(=O)[C@H](Cc1ccc(O)cc1)NC(=O)[C@H](CC(=O)O)NC(=O)[C@H](CO)NC(=O)[C@@H](NC(=O)[C@H](Cc1ccccc1)NC(=O)[C@@H](NC(=O)CNC(=O)[C@H](Cc1c[nH]cn1)NC(=O)[C@H](CO)NC(=O)[C@@H](N)Cc1ccc(O)cc1)[C@@H](C)O)[C@@H](C)O)C(=O)N[C@@H](CC(=O)O)C(=O)NC(C)(C)C(=O)N[C@@H](C)C(=O)N[C@@H](CCCNC(=N)N)C(=O)N[C@@H](C)C(=O)N[C@@H](CCC(N)=O)C(=O)N[C@@H](CCC(=O)O)C(=O)N[C@@H](Cc1ccccc1)C(=O)N[C@H](C(=O)NC(C)(C)C(=O)N[C@@H](Cc1c[nH]c2ccccc12)C(=O)N[C@@H](CC(C)C)C(=O)N[C@@H](CCC(=O)O)C(=O)N[C@@H](CC(=O)O)C(=O)N[C@@H](CCC(=O)O)C(=O)N1CCC[C@H]1C(=O)N[C@@H](CO)C(=O)N[C@@H](CO)C(=O)NCC(=O)N[C@@H](C)C(=O)N1CCC[C@H]1C(=O)N1CCC[C@H]1C(=O)N1CCC[C@H]1C(=O)N[C@@H](CO)C(=O)O)C(C)C) [Compound A103],11.9 pEC50,< 9 pEC50
YSHGTFTSDYSKYLD[Aib]KRAQEFV[Aib]WLEDE-OH (N-terminus assumed; SMILES CC(C)C[C@H](NC(=O)[C@H](Cc1ccc(O)cc1)NC(=O)[C@H](CCCCN)NC(=O)[C@H](CO)NC(=O)[C@H](Cc1ccc(O)cc1)NC(=O)[C@H](CC(=O)O)NC(=O)[C@H](CO)NC(=O)[C@@H](NC(=O)[C@H](Cc1ccccc1)NC(=O)[C@@H](NC(=O)CNC(=O)[C@H](Cc1c[nH]cn1)NC(=O)[C@H](CO)NC(=O)[C@@H](N)Cc1ccc(O)cc1)[C@@H](C)O)[C@@H](C)O)C(=O)N[C@@H](CC(=O)O)C(=O)NC(C)(C)C(=O)N[C@@H](CCCCN)C(=O)N[C@@H](CCCNC(=N)N)C(=O)N[C@@H](C)C(=O)N[C@@H](CCC(N)=O)C(=O)N[C@@H](CCC(=O)O)C(=O)N[C@@H](Cc1ccccc1)C(=O)N[C@H](C(=O)NC(C)(C)C(=O)N[C@@H](Cc1c[nH]c2ccccc12)C(=O)N[C@@H](CC(C)C)C(=O)N[C@@H](CCC(=O)O)C(=O)N[C@@H](CC(=O)O)C(=O)N[C@@H](CCC(=O)O)C(=O)O)C(C)C) [Compound A100],12.6 pEC50,< 9 pEC50
YSHGTFTSDYSKWLD[Aib]KRAQEFVKWLEDE-OH (N-terminus assumed; SMILES CC(C)C[C@H](NC(=O)[C@H](Cc1c[nH]c2ccccc12)NC(=O)[C@H](CCCCN)NC(=O)[C@@H](NC(=O)[C@H](Cc1ccccc1)NC(=O)[C@H](CCC(=O)O)NC(=O)[C@H](CCC(N)=O)NC(=O)[C@H](C)NC(=O)[C@H](CCCNC(=N)N)NC(=O)[C@H](CCCCN)NC(=O)C(C)(C)NC(=O)[C@H](CC(=O)O)NC(=O)[C@H](CC(C)C)NC(=O)[C@H](Cc1c[nH]c2ccccc12)NC(=O)[C@H](CCCCN)NC(=O)[C@H](CO)NC(=O)[C@H](Cc1ccc(O)cc1)NC(=O)[C@H](CC(=O)O)NC(=O)[C@H](CO)NC(=O)[C@@H](NC(=O)[C@H](Cc1ccccc1)NC(=O)[C@@H](NC(=O)CNC(=O)[C@H](Cc1c[nH]cn1)NC(=O)[C@H](CO)NC(=O)[C@@H](N)Cc1ccc(O)cc1)[C@@H](C)O)[C@@H](C)O)C(C)C)C(=O)N[C@@H](CCC(=O)O)C(=O)N[C@@H](CC(=O)O)C(=O)N[C@@H](CCC(=O)O)C(=O)O) [Compound A102],12.4 pEC50,< 9 pEC50
YSHGTFTSDYSKYLD[Aib]KRAQEFV[Aib]WLEDEPSSGAPPPS-OH (N-terminus assumed; SMILES CC(C)C[C@H](NC(=O)[C@H](Cc1ccc(O)cc1)NC(=O)[C@H](CCCCN)NC(=O)[C@H](CO)NC(=O)[C@H](Cc1ccc(O)cc1)NC(=O)[C@H](CC(=O)O)NC(=O)[C@H](CO)NC(=O)[C@@H](NC(=O)[C@H](Cc1ccccc1)NC(=O)[C@@H](NC(=O)CNC(=O)[C@H](Cc1c[nH]cn1)NC(=O)[C@H](CO)NC(=O)[C@@H](N)Cc1ccc(O)cc1)[C@@H](C)O)[C@@H](C)O)C(=O)N[C@@H](CC(=O)O)C(=O)NC(C)(C)C(=O)N[C@@H](CCCCN)C(=O)N[C@@H](CCCNC(=N)N)C(=O)N[C@@H](C)C(=O)N[C@@H](CCC(N)=O)C(=O)N[C@@H](CCC(=O)O)C(=O)N[C@@H](Cc1ccccc1)C(=O)N[C@H](C(=O)NC(C)(C)C(=O)N[C@@H](Cc1c[nH]c2ccccc12)C(=O)N[C@@H](CC(C)C)C(=O)N[C@@H](CCC(=O)O)C(=O)N[C@@H](CC(=O)O)C(=O)N[C@@H](CCC(=O)O)C(=O)N1CCC[C@H]1C(=O)N[C@@H](CO)C(=O)N[C@@H](CO)C(=O)NCC(=O)N[C@@H](C)C(=O)N1CCC[C@H]1C(=O)N1CCC[C@H]1C(=O)N1CCC[C@H]1C(=O)N[C@@H](CO)C(=O)O)C(C)C) [Compound A99],12.5 pEC50,< 9 pEC50
